Results as given in paper PMC8978339 (Cancer chemotherapy and pharmacology, 2021).

Biological target: T1, his-tagged PXRLBD (residues 130-434) (human, UniProt O75469 130-434)
T1 sequence (looked up): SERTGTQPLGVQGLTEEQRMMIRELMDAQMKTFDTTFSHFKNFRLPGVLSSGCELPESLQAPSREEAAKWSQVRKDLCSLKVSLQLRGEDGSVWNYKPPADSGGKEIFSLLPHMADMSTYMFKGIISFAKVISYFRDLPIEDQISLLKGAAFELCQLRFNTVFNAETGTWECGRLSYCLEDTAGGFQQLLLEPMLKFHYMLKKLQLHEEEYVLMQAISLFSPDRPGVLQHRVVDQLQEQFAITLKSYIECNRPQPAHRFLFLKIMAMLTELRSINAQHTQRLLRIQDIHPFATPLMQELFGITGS
Test: pull-down

binding result: binds
B1: SRC186 (human SRC-1 fragment, residues 595-780) (domain or fragment, UniProt Q15788 595-780, looked up)
chain: MIQSDNSSSDGKPLDSGLLHNNDRLSDGDSKYSQTSHKLVQLLTTTAEQQLRHADIDTSCKDVLSCTGTSNSASANSSGGSCPSSHSSLTERHKILHRLLQEGSPSDITTLSVEPDKKDSASTSVSVTGQVQGNSSIKLELDASKKKESKDHQLLRYLLDKDEKDLRSTPNLSLDDVKVKVEKKEQ
modifications: biotin (labeled with biotin reagent)
